Experimental findings from US20260265385A1 (ANAPTYSBIO, published 2026) are described below.

As usually defined, the Kd is the equilibrium constant for the complex coming apart.

In assay [1] the target is T1, recombinant human IL-2Rβ (extracellular domain, Ala1-Thr215) (human, UniProt P14784 27-240).
T1 construct: extracellular domain; Analyte in SPR; Ala1-Thr215 is counted on the mature protein; also called human LL-2Rβ; Human IL-2RB
T1 sequence (looked up): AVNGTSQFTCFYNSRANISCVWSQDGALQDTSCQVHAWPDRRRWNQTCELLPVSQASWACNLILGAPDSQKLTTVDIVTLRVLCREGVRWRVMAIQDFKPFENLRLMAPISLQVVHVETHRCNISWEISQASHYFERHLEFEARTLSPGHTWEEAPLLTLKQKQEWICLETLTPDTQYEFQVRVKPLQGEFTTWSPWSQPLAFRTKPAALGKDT
Briefly: SPR, antibody captured on Protein A chip. Here is the method: (§1) Surface plasmon resonance (SPR) was used to determine the binding affinities. The M6-1625 and M10-1275 antibodies were captured onto a Cytiva Protein A Chip for 60 seconds at 0.5 μg/mL for 60 seconds. The antibodies were exposed to recombinant human LL-2Rβ or cynomolgus LL-2Rβ (corresponding to residues Ala1-Thr215 of the extracellular domains excluding the signal peptide) at typical concentrations ranging from 0.4 nM to 11 nM with typical 300 second associations and 1200 second dissociations using a BiacoreS200 instrument. Sensorgrams were fit globally using a 1:1 binding model in the Biacore T200 Evaluation Software to calculate on- and off-rates and KD values.
For orientation: SPR reads the build-up and loss of mass on a sensor chip optically.

Assay [2] addresses T2, recombinant cynomolgus IL-2Rβ (extracellular domain, Ala1-Thr215) (cynomolgus, UniProt Q38J85 27-240).
T2 construct: extracellular domain; Analyte in SPR; also called cynomolgus LL-2Rβ; Cyno IL-2RB
T2 sequence (looked up): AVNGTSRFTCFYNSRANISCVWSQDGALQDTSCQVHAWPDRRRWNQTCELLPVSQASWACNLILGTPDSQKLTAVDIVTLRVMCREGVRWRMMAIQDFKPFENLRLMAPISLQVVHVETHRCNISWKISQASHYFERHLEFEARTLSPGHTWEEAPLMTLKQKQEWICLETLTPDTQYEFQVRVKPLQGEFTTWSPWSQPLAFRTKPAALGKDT
Put plainly: SPR, antibody captured on Protein A chip. Here is the method: as §1

B1: APE15037 (antibody, V domains shown)
VH: EVQLVQSGAEVKKPGATVKISCKVSGFNFKDSLLHWVQQAPGKGLEWMGWIDSENGETEYAPGFQDRVTITADTSTDTAYMELSSLRSEDTAVYYCARGGPWFLSYWGQGTTVTVSS
VL: EIVMTQSPATLSVSPGERATLSCRASQIISNNLHWYQQKPGQAPRLLIIYGLQSISGIPARFSGSRSGTEFTLTISSLQSEDFAVYFCQQSNNWPWTFGQGTKLEIKR
notes: M10-1275 series
Turning to B1, the Kd in assay [1] came to 0.124 nM; in assay [2], 0.0171 nM.

B2: APE15137 (antibody, V domains shown)
VH: EVQLVQSGAEVKKPGATVKISCKVSGFNFKYSLMHWVQQAPGKGLEWMGWIDSENGETEYAPGFQDRVTITADTSTDTAYMELSSLRSEDTAVYYCARGGPWFLSYWGQGTTVTVSS
VL: EIVMTQSPATLSVSPGERATLSCRASQIISNNLHWYQQKPGQAPRLLIIYGLQSISGIPARFSGSRSGTEFTLTISSLQSEDFAVYYCQQSNNWPWTFGQGTKLEIKR
notes: M10-1275 series
Turning to B2, the values for the Kd in assay [1] and in assay [2] were 0.0518 nM and 0.0174 nM, respectively.

B3: APE15139 (antibody, V domains shown)
VH: EVQLVQSGAEVKKPGATVKISCKVSGFNFKESLIHWVQQAPGKGLEWMGWIDVEAGETEYAPGFQDRVTITADTSTDTAYMELSSLRSEDTAVYYCARGGPWFLSYWGQGTTVTVSS
VL: EIVMTQSPATLSVSPGERATLSCRASQIISNNLHWYQQKPGQAPRLLIIYGLQSISGIPARFSGSRSGTEFTLTISSLQSEDFAVYYCQQSNNWPWTFGQGTKLEIKR
notes: M10-1275 series
For the molecule B3, the Kd in assay [1] amounted to 0.0352 nM; in assay [2], 0.00923 nM.

B4: APE15138 (antibody, V domains shown)
VH: EVQLVQSGAEVKKPGATVKISCKVSGFNFKLSLMHWVQQAPGKGLEWMGWIDSENGETEYAPGFQDRVTITADTSTDTAYMELSSLRSEDTAVYYCARGGPWFLSYWGQGTTVTVSS
VL: EIVMTQSPATLSVSPGERATLSCRASQIISNNLHWYQQKPGQAPRLLIIYGLQSISGIPARFSGSRSGTEFTLTISSLQSEDFAVYYCQQSNNWPWTFGQGTKLEIKR
notes: M10-1275 series
Regarding B4, the Kd was found to be 0.0436 nM in assay [1] and 0.0163 nM in assay [2].

B5: APE15038 (antibody, V domains shown)
VH: EVQLVQSGAEVKKPGATVKISCKVSGFNFKDSLIHWVQQAPGKGLEWMGWIDSENGETEYAPGFQDRVTITADTSTDTAYMELSSLRSEDTAVYYCARGGPWFLSYWGQGTTVTVSS
VL: EIVMTQSPATLSVSPGERATLSCRASQIISNNLHWYQQKPGQAPRLLIIYGLQSISGIPARFSGSRSGTEFTLTISSLQSEDFAVYFCQQSNNWPWTFGQGTKLEIKR
notes: M10-1275 series
Regarding B5, the equilibrium dissociation constant (Kd) was 0.12 nM in assay [1] and 0.0185 nM in assay [2].

B6: APE15136 (antibody, V domains shown)
VH: EVQLVQSGAEVKKPGATVKISCKVSGFNFKESLMHWVQQAPGKGLEWMGWIDSENGETEYAPGFQDRVTITADTSTDTAYMELSSLRSEDTAVYYCARGGPWFLSYWGQGTTVTVSS
VL: EIVMTQSPATLSVSPGERATLSCRASQIISNNLHWYQQKPGQAPRLLIIYGLQSISGIPARFSGSRSGTEFTLTISSLQSEDFAVYYCQQSNNWPWTFGQGTKLEIKR
notes: M10-1275 series
Regarding B6, the Kd was 0.0481 nM in assay [1] and 0.0114 nM in assay [2].

B7: APE15059 (antibody, V domains shown)
VH: EVQLVQSGAEVKKPGATVKISCKVSGFNFKDSLMHWVQQAPGKGLEWMGWIDSENGETEYAPGFQDRVTITADTSTDTAYMELSSLRSEDTAVYYCARGGPWFLSYWGQGTTVTVSS
VL: EIVMTQSPATLSVSPGERATLSCRASQIISNNLHWYQQKPGQAPRLLIIYGLQSISGIPARFSGSRSGTEFTLTISSLQSEDFAVYYCQQSNNWPWTFGQGTKLEIKR
notes: M10-1275 series
With B7, the results for the Kd in assay [1] and in assay [2] were 0.0697 nM and 0.0159 nM, respectively.

B8: APE15056 (antibody, V domains shown)
VH: EVQLVQSGAEVKKPGATVKISCKVSGFNFKDSLMHWVQQAPGKGLEWMGWIDSENGETEYAPGFQDRVTITADTSTDTAYMELSSLRSEDTAVYYCARGGPWFLSYWGQGTTVTVSS
VL: EIVMTQSPATLSVSPGERATLSCRASQIISNNLHWYQQKPGQAPRLLIIYGLQSISGIPARFSGSRSGTEFTLTISSLQSEDFAVYFCQQSNNFPWTFGQGTKLEIKR
notes: M10-1275 series
As for B8, the Kd was found to be 0.122 nM in assay [1] and 0.0198 nM in assay [2].

B9: APE15053 (antibody, V domains shown)
VH: EVQLVQSGAEVKKPGATVKISCKVSGFNFKDSLMHWVQQAPGKGLEWMGWIDSENGETEYAPGFQDRVTITADTSTDTAYMELSSLRSEDTAVYYCARGGPWFLSYWGQGTTVTVSS
VL: EIVMTQSPATLSVSPGERATLSCRASQIISNNLHWYQQKPGQAPRLLIIYGLQSISGIPARFSGSRSGTEFTLTISSLQSEDFAVYFCQQSNNWPYTFGQGTKLEIKR
notes: M10-1275 series
In the case of B9, the figures for the Kd in assay [1] and in assay [2] were 0.0915 nM and 0.0399 nM, respectively.

B10: APE15057 (antibody, V domains shown)
VH: EVQLVQSGAEVKKPGATVKISCKVSGFNFKDSLMHWVQQAPGKGLEWMGWIDSENGETEYAPGFQDRVTITADTSTDTAYMELSSLRSEDTAVYYCARGGPWFLSYWGQGTTVTVSS
VL: EIVMTQSPATLSVSPGERATLSCRASQIISNNLHWYQQKPGQAPRLLIYYGLQSISGIPARFSGSRSGTEFTLTISSLQSEDFAVYYCQQSNNWPWTFGQGTKLEIKR
notes: M10-1275 series
With B10, the results for the Kd in assay [1] and in assay [2] were 0.144 nM and 0.024 nM, respectively.

B11: APE15143 (antibody, V domains shown)
VH: EVQLVQSGAEVKKPGATVKISCKVSGFNFKYSLMHWVQQAPGKGLEWMGWIDNEAGETEYAPGFQDRVTITADTSTDTAYMELSSLRSEDTAVYYCARGGPWFLSYWGQGTTVTVSS
VL: EIVMTQSPATLSVSPGERATLSCRASQIISNNLHWYQQKPGQAPRLLIIYGLQSISGIPARFSGSRSGTEFTLTISSLQSEDFAVYYCQQSNNWPWTFGQGTKLEIKR
notes: M10-1275 series
Regarding B11, the Kd was 0.0251 nM in assay [1] and 0.00972 nM in assay [2].

B12: APE15055 (antibody, V domains shown)
VH: EVQLVQSGAEVKKPGATVKISCKVSGFNFKDSLMHWVQQAPGKGLEWMGWIDSENGETEYAPGFQDRVTITADTSTDTAYMELSSLRSEDTAVYYCARGGPWFLSYWGQGTTVTVSS
VL: EIVMTQSPATLSVSPGERATLSCRASQIISNNLHWYQQKPGQAPRLLIIYGLQSISGIPARFSGSRSGTEFTLTISSLQSEDFAVYFCQQSNNYPWTFGQGTKLEIKR
notes: M10-1275 series
In the case of B12, the Kd came out at 0.369 nM in assay [1] and 0.0838 nM in assay [2].

B13: APE15141 (antibody, V domains shown)
VH: EVQLVQSGAEVKKPGATVKISCKVSGFNFKESLMHWVQQAPGKGLEWMGWIDNEAGETEYAPGFQDRVTITADTSTDTAYMELSSLRSEDTAVYYCARGGPWFLSYWGQGTTVTVSS
VL: EIVMTQSPATLSVSPGERATLSCRASQIISNNLHWYQQKPGQAPRLLIIYGLQSISGIPARFSGSRSGTEFTLTISSLQSEDFAVYYCQQSNNWPWTFGQGTKLEIKR
notes: M10-1275 series
On to B13, for which the Kd worked out at 0.022 nM in assay [1] and 0.0103 nM in assay [2].

B14: APE15054 (antibody, V domains shown)
VH: EVQLVQSGAEVKKPGATVKISCKVSGFNFKDSLMHWVQQAPGKGLEWMGWIDSENGETEYAPGFQDRVTITADTSTDTAYMELSSLRSEDTAVYYCARGGPWFLSYWGQGTTVTVSS
VL: EIVMTQSPATLSVSPGERATLSCRASQIISNNLHWYQQKPGQAPRLLIIYGLQSISGIPARFSGSRSGTEFTLTISSLQSEDFAVYFCQQSNNWPFTFGQGTKLEIKR
notes: M10-1275 series
On to B14, for which the Kd in assay [1] turned out to be 0.429 nM; in assay [2], 0.108 nM.

B15: APE15144 (antibody, V domains shown)
VH: EVQLVQSGAEVKKPGATVKISCKVSGFNFKLSLIHWVQQAPGKGLEWMGWIDNEAGETEYAPGFQDRVTITADTSTDTAYMELSSLRSEDTAVYYCARGGPWFLSYWGQGTTVTVSS
VL: EIVMTQSPATLSVSPGERATLSCRASQIISNNLHWYQQKPGQAPRLLIIYGLQSISGIPARFSGSRSGTEFTLTISSLQSEDFAVYYCQQSNNWPWTFGQGTKLEIKR
notes: M10-1275 series
Regarding B15, the dissociation constant (Kd) in assay [1] was determined as 0.0297 nM; in assay [2] it was 0.0116 nM.

B16: APE15135 (antibody, V domains shown)
VH: EVQLVQSGAEVKKPGATVKISCKVSGFNFKDSLMHWVQQAPGKGLEWMGWIDNENGETEYAPGFQDRVTITADTSTDTAYMELSSLRSEDTAVYYCARGGPWFLSYWGQGTTVTVSS
VL: EIVMTQSPATLSVSPGERATLSCRASQIISNNLHWYQQKPGQAPRLLIIYGLQSISGIPARFSGSRSGTEFTLTISSLQSEDFAVYYCQQSNNWPWTFGQGTKLEIKR
notes: M10-1275 series
B16: the Kd in assay [1] came out at 0.0282 nM; in assay [2], 0.0105 nM.

B17: APE15058 (antibody, V domains shown)
VH: EVQLVQSGAEVKKPGATVKISCKVSGFNFKDSLMHWVQQAPGKGLEWMGWIDSENGETEYAPGFQDRVTITADTSTDTAYMELSSLRSEDTAVYYCARGGPWFLSYWGQGTTVTVSS
VL: EIVMTQSPATLSVSPGERATLSCRASQIISNNLHWYQQKPGQAPRLLIYYGLQSISGIPARFSGSRSGTEFTLTISSLQSEDFAVYFCQQSNNWPWTFGQGTKLEIKR
notes: M10-1275 series
For the molecule B17, the equilibrium dissociation constant (Kd) in assay [1] turned out to be 0.154 nM; in assay [2], 0.0223 nM.
